The values that follow come from PMC11933058 (Frontiers in Immunology, 2025).

Experiment [1] addresses T1, TIT-H52H5 Human TIGIT Protein, His Tag, active dimer (ACROBiosystems) (Homo sapiens, UniProt Q495A1).
T1 construct: TIGIT, human, recombinant extracellular domain; the methods describe the His-tagged protein; For BLI only 'recombinant TIGIT' is said; also called VSIG9; T-cell immunoreceptor with Ig and ITIM domains; source: bought: ACROBiosystems
In words: AlphaScreen or HTRF; dose-response of antibodies (human IgG1 in concentrated, dosed HEK293 supernatant) on recombinant TIM3 or TIGIT at 0.6 ng/µl; 1 h incubation, then donor and acceptor sensors 1 h; EC50 from a fit in GraphPad Prism. Conditions: one partner purified. Background: In Alpha technology, singlet oxygen from a donor bead excites a nearby acceptor bead.

Experiment [2] deals with T1, TIT-H52H5 Human TIGIT Protein, His Tag, …. In words: BLI; Octet RED96, antibody loaded from supernatant on anti-human Fc (AHC) biosensors, recombinant TIM3 or TIGIT in solution; PBS, 30°C, 1000 rpm; association 300 sec, dissociation 300 sec; global 1:1 fit. Conditions: one partner purified. A general note: In BLI a coated tip is dipped into the sample, and binding shifts an interference pattern.

Experiment [3] addresses T2, SIRPα with C-terminal Flag tag, overexpressed in HEK293 cells (UniProt P78324).
T2 construct: SIRPα, transmembrane target, synthetic gene; source: HEK293, transiently transfected (pcDNA3.1), cells fixed and permeabilized; not shown: Flag, C-terminal, kept
Nature of the experiment: flow cytometry on cells; HEK293 transiently transfected with the Flag-tagged target, fixed and permeabilized, incubated with raw antibody supernatants 1 h at room temperature; APC anti-human IgG and PE anti-Flag; % APC+PE+ cells. Conditions: partners not purified. A general note: In flow cytometry, cells or beads pass a laser one at a time.

Experiment [4] addresses T3, recombinant human TIM3 extracellular domain, 6-His C-ter-tagged (ACROBiosystems) (Homo sapiens, UniProt Q8TDQ0).
T3 construct: TIM3 (HAVCR2), human, recombinant extracellular domain; the methods describe the His-tagged protein; For BLI only 'recombinant TIM3' is said; also called HAVCR-2; HAVCR2; source: bought: ACROBiosystems; not shown: His6, C-terminal, kept
In words: AlphaScreen or HTRF; dose-response of antibodies (human IgG1 in concentrated, dosed HEK293 supernatant) on recombinant TIM3 or TIGIT at 0.6 ng/µl; 1 h incubation, then donor and acceptor sensors 1 h; EC50 from a fit in GraphPad Prism. Conditions: one partner purified.

Experiment [5] concerns the target T3, recombinant human TIM3 extracellular …. Nature of the experiment: BLI; Octet RED96, antibody loaded from supernatant on anti-human Fc (AHC) biosensors, recombinant TIM3 or TIGIT in solution; PBS, 30°C, 1000 rpm; association 300 sec, dissociation 300 sec; global 1:1 fit. Conditions: one partner purified.

T1 sequence (Q495A1 22-141): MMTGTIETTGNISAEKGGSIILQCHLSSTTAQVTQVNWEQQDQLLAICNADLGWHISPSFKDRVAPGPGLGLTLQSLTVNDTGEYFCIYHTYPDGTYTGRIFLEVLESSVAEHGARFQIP

B1: Tiragolumab, human IgG1 format (antibody, V domains shown)
VH: EVQLQQSGPGLVKPSQTLSLTCAISGDSVSSNSAAWNWIRQSPSRGLEWLGKTYYRFKWYSDYAVSVKGRITINPDTSKNQFSLQLNSVTPEDTAVFYCTRESTTYDLLAGPFDYWGQGTLVTVSS
VL: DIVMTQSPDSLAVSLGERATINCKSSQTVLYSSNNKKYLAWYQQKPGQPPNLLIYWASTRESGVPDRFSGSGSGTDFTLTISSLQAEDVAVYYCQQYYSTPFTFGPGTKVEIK
notes: VH of Tiragolumab; constant domains of unmodified human IgG1 heavy chain, from the plasmid pTrioz-hIgG1 (InvivoGen); VL of Tiragolumab; constant domain of the light chain as encoded by pTrioz-hIgG1; IgG1; VH and VL by gene synthesis; also called 8JEO; source: HEK293, transiently transfected, supernatant (concentrated)
Consider B1, for which, in experiment [1], the EC50 – broadly, the concentration giving half of the maximal effect – is 3.15 nM. Also, in experiment [2], the Kd (commonly a measure of binding affinity in units of concentration) was determined as 0.681 nM; the koff (in general, a measure of how fast the partners let go of each other) was determined as 0.000279 s⁻¹; the kon (commonly the second-order rate constant of association) came out at 410000 M⁻¹ s⁻¹.

B2: CC-95251, human IgG1 format (antibody, V domains shown)
VH: QVQLVQSGAEVKKPGASVKVSCKASGYTFRGYGISWVRQAPGQGLEWMGWISAYGGETNYAQKLQGRVTMTTDTSTSTAYMELRSLRSDDTAVYYCAREAGSSWYDFDLWGRGTLVTVSS
VL: DIQMTQSPSSVSASVGDRVTITCRASQGISSWLAWYQQKPGKAPKLLIYAASNLQSGVPSRFSGSGSGTDFTLTISSLQPEDFATYYCQQGASFPITFGGGTKVEIK
notes: constant domains of unmodified human IgG1 heavy chain, from the plasmid pTrioz-hIgG1 (InvivoGen); constant domain of the light chain as encoded by pTrioz-hIgG1; VH and VL by gene synthesis; also called 7ST5; source: HEK293, transiently transfected, supernatant
For the molecule B2, the binding result in experiment [3] is recorded as “binds”.

B3: M6903, human IgG1 format (antibody, V domains shown)
VH: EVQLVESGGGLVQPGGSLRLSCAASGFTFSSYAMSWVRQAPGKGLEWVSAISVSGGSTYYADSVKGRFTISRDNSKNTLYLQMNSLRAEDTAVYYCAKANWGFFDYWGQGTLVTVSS
VL: QSALTQPRSVSGSPGQSVTISCTGTSSDVGGYNYVSWYQQHPGKAPKLMIYDVSKRPSGVPDRFSGSKSGNTASLTISGLQAEDEADYYCSSYADSVVFGGGTKVTVL
notes: VH of M6903; constant domains of unmodified human IgG1 heavy chain, from the plasmid pTrioz-hIgG1 (InvivoGen); VL of M6903; constant domain of the light chain as encoded by pTrioz-hIgG1; IgG1; VH and VL by gene synthesis; also called 6TXZ; source: HEK293, transiently transfected, supernatant (concentrated); also a large batch produced and purified by SinoBiological
As to B3, in experiment [4], the half-maximal effective concentration (EC50) came to 0.193 nM. In experiment [5], the Kd came out at 0.2 nM, the koff was determined as 3.06e-05 s⁻¹ and the on-rate (kon) was 153000 M⁻¹ s⁻¹.

B4: MG1131, human IgG1 format (antibody, V domains shown)
VH: EVQLVQSGAEVKKPGASVKVSCKASGYTFTSYYMHWVRQAPGQGLEWMGIINPSGGSTSYAQKFQGRVTMTRDTSTSTVYMELSSLRSEDTAVYYCASRSGSGWFGALDYWGQGTLVTVSS
VL: not shown
notes: VH of MG1131; constant domains of unmodified human IgG1 heavy chain, from the plasmid pTrioz-hIgG1 (InvivoGen); VL of MG1131; constant domain of the light chain as encoded by pTrioz-hIgG1; IgG1; VH and VL by gene synthesis; also called 7VYT; source: HEK293, transiently transfected, supernatant (concentrated)
B4: in experiment [1], the EC50 is 0.489 nM. Moreover, in experiment [2], the dissociation constant (Kd) is 0.189 nM, the koff was 7.43e-05 s⁻¹ and the kon amounted to 393000 M⁻¹ s⁻¹.

B5: Tim3.18, human IgG1 format (antibody, V domains shown)
VH: QLQLQESGPGLVKPSETLSLTCTVSGGSISSRSYYWGWIRQPPGKGLEWIGSIYYSGFTYYQPSLKSRVTISVDTSKNQFSLKLSSVTAADTAVYYCATGGPYGDYAHWFEPWGQGTLVTVSS
VL: not shown
notes: VH of Tim3.18; constant domains of unmodified human IgG1 heavy chain, from the plasmid pTrioz-hIgG1 (InvivoGen); VL of Tim3.18; constant domain of the light chain as encoded by pTrioz-hIgG1; IgG1; VH and VL by gene synthesis; also called 7KQL; source: HEK293, transiently transfected, supernatant (concentrated); also a large batch produced and purified by SinoBiological
Regarding B5, in experiment [4], the concentration giving a half-maximal response (EC50) was 0.15 nM. In addition, in experiment [5], the Kd was found to be 1.01 nM, the koff worked out at 0.000219 s⁻¹ and the kon was 216000 M⁻¹ s⁻¹.
